These results are taken from patent US12679878B2, “CRF2 receptor agonists and their use in therapy” (SANOFI, priority 2020, dated 2026).

Experiment [1] addresses human corticotropin-releasing factor 2α (CRF2α receptor) (human), Q13324. Briefly: cell-based or functional assay.
Experiment [2] addresses T1, CRF1R receptor (anti-target) (UniProt P34998 24-415, limits assumed).
T1 sequence (looked up): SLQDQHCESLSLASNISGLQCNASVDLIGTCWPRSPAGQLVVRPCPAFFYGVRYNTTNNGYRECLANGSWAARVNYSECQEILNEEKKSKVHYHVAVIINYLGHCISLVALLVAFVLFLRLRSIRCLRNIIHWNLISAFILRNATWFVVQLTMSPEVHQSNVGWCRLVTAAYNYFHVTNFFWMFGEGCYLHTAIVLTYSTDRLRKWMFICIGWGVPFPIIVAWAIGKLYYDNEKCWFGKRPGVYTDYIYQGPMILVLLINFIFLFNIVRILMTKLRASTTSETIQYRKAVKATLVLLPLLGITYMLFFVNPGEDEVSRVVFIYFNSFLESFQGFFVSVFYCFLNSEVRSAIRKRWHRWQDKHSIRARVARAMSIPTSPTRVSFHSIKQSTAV
Briefly: cell-based or functional assay.

Starred links: 1 amine or outer side, 2 acyl side, 3 side chain; linkers in the order of their positions; H or OH if unused. Non-standard residues stand in square brackets, D forms with d. Groups on a side chain read outwards from the residue. No end group written: not given here. *: point of attachment. C16 diacid = O=C(O)CCCCCCCCCCCCCCC(=O)*; γGlu = O=C(O)[C@H](CCC(=O)[*:2])N[*:1]; AEEA = NCCOCCOCC(=O)O; Aib = CC(C)(N)C(=O)O

Chain of human corticotropin-releasing factor 2α (CRF2α receptor) (human), Q13324 (Q13324 20-411): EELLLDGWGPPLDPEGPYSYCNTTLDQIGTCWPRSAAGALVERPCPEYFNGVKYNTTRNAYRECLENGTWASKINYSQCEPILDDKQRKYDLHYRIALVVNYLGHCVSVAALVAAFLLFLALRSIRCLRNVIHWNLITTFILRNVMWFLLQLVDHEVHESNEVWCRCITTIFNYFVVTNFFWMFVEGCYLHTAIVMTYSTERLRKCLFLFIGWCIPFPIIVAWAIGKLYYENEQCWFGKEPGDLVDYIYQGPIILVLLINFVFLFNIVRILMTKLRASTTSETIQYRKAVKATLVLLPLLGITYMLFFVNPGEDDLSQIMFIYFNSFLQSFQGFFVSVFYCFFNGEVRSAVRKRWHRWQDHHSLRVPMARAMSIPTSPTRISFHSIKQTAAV

B1: peptide of SEQ ID NO: 202 (peptide)
peptide: IVLSLD[dV]PIGLK([AEEA-AEEA-γGlu-C16 diacid])QILLKQERQKK[Aib]REQAETNKQILAQV-NH2
modifications: N-terminus assumed
SMILES: CC[C@H](C)[C@H](N)C(=O)N[C@H](C(=O)N[C@@H](CC(C)C)C(=O)N[C@@H](CO)C(=O)N[C@@H](CC(C)C)C(=O)N[C@@H](CC(=O)O)C(=O)N[C@@H](C(=O)N1CCC[C@H]1C(=O)N[C@H](C(=O)NCC(=O)N[C@@H](CC(C)C)C(=O)N[C@@H](CCCCNC(=O)COCCOCCNC(=O)COCCOCCNC(=O)CC[C@H](NC(=O)CCCCCCCCCCCCCCC(=O)O)C(=O)O)C(=O)N[C@@H](CCC(N)=O)C(=O)N[C@H](C(=O)N[C@@H](CC(C)C)C(=O)N[C@@H](CC(C)C)C(=O)N[C@@H](CCCCN)C(=O)N[C@@H](CCC(N)=O)C(=O)N[C@@H](CCC(=O)O)C(=O)N[C@@H](CCCNC(=N)N)C(=O)N[C@@H](CCC(N)=O)C(=O)N[C@@H](CCCCN)C(=O)N[C@@H](CCCCN)C(=O)NC(C)(C)C(=O)N[C@@H](CCCNC(=N)N)C(=O)N[C@@H](CCC(=O)O)C(=O)N[C@@H](CCC(N)=O)C(=O)N[C@@H](C)C(=O)N[C@@H](CCC(=O)O)C(=O)N[C@H](C(=O)N[C@@H](CC(N)=O)C(=O)N[C@@H](CCCCN)C(=O)N[C@@H](CCC(N)=O)C(=O)N[C@H](C(=O)N[C@@H](CC(C)C)C(=O)N[C@@H](C)C(=O)N[C@@H](CCC(N)=O)C(=O)N[C@H](C(N)=O)C(C)C)[C@@H](C)CC)[C@@H](C)O)[C@@H](C)CC)[C@@H](C)CC)C(C)C)C(C)C
B1: the EC50 [nM], 0% HSA (cAMP, HTRF) in experiment [1] stood at 0.87 nM. In addition, in experiment [2], the “EC50 [nM] 0% HSA (cAMP, HTRF)” value was greater than 100 nM and the “Emax (%) (100% = Sauvagine at 100 nM)” value is 5.4%.

B2: peptide of SEQ ID NO: 200 (peptide)
peptide: IVLSLD[dV]PIKLK([AEEA-AEEA-γGlu-C16 diacid])QILLKQERQKK[Aib]RQKAEKNKQILAQV-NH2
modifications: N-terminus assumed
SMILES: CC[C@H](C)[C@H](N)C(=O)N[C@H](C(=O)N[C@@H](CC(C)C)C(=O)N[C@@H](CO)C(=O)N[C@@H](CC(C)C)C(=O)N[C@@H](CC(=O)O)C(=O)N[C@@H](C(=O)N1CCC[C@H]1C(=O)N[C@H](C(=O)N[C@@H](CCCCN)C(=O)N[C@@H](CC(C)C)C(=O)N[C@@H](CCCCNC(=O)COCCOCCNC(=O)COCCOCCNC(=O)CC[C@H](NC(=O)CCCCCCCCCCCCCCC(=O)O)C(=O)O)C(=O)N[C@@H](CCC(N)=O)C(=O)N[C@H](C(=O)N[C@@H](CC(C)C)C(=O)N[C@@H](CC(C)C)C(=O)N[C@@H](CCCCN)C(=O)N[C@@H](CCC(N)=O)C(=O)N[C@@H](CCC(=O)O)C(=O)N[C@@H](CCCNC(=N)N)C(=O)N[C@@H](CCC(N)=O)C(=O)N[C@@H](CCCCN)C(=O)N[C@@H](CCCCN)C(=O)NC(C)(C)C(=O)N[C@@H](CCCNC(=N)N)C(=O)N[C@@H](CCC(N)=O)C(=O)N[C@@H](CCCCN)C(=O)N[C@@H](C)C(=O)N[C@@H](CCC(=O)O)C(=O)N[C@@H](CCCCN)C(=O)N[C@@H](CC(N)=O)C(=O)N[C@@H](CCCCN)C(=O)N[C@@H](CCC(N)=O)C(=O)N[C@H](C(=O)N[C@@H](CC(C)C)C(=O)N[C@@H](C)C(=O)N[C@@H](CCC(N)=O)C(=O)N[C@H](C(N)=O)C(C)C)[C@@H](C)CC)[C@@H](C)CC)[C@@H](C)CC)C(C)C)C(C)C
B2 yielded an EC50 [nM], 0% HSA (cAMP, HTRF) in experiment [1] of 8.7 nM. Also, in experiment [2], the “EC50 [nM] 0% HSA (cAMP, HTRF)” value is greater than 100 nM and the “Emax (%) (100% = Sauvagine at 100 nM)” value worked out at 1.9%.

B3: peptide of SEQ ID NO: 199 (peptide)
peptide: IVLSLD[dV]PIKLK([AEEA-AEEA-γGlu-γGlu-C16 diacid])QILLKQERQK[Aib]QREQAEKNKQILAQV-NH2
modifications: N-terminus assumed
SMILES: CC[C@H](C)[C@H](N)C(=O)N[C@H](C(=O)N[C@@H](CC(C)C)C(=O)N[C@@H](CO)C(=O)N[C@@H](CC(C)C)C(=O)N[C@@H](CC(=O)O)C(=O)N[C@@H](C(=O)N1CCC[C@H]1C(=O)N[C@H](C(=O)N[C@@H](CCCCN)C(=O)N[C@@H](CC(C)C)C(=O)N[C@@H](CCCCNC(=O)COCCOCCNC(=O)COCCOCCNC(=O)CC[C@H](NC(=O)CC[C@H](NC(=O)CCCCCCCCCCCCCCC(=O)O)C(=O)O)C(=O)O)C(=O)N[C@@H](CCC(N)=O)C(=O)N[C@H](C(=O)N[C@@H](CC(C)C)C(=O)N[C@@H](CC(C)C)C(=O)N[C@@H](CCCCN)C(=O)N[C@@H](CCC(N)=O)C(=O)N[C@@H](CCC(=O)O)C(=O)N[C@@H](CCCNC(=N)N)C(=O)N[C@@H](CCC(N)=O)C(=O)N[C@@H](CCCCN)C(=O)NC(C)(C)C(=O)N[C@@H](CCC(N)=O)C(=O)N[C@@H](CCCNC(=N)N)C(=O)N[C@@H](CCC(=O)O)C(=O)N[C@@H](CCC(N)=O)C(=O)N[C@@H](C)C(=O)N[C@@H](CCC(=O)O)C(=O)N[C@@H](CCCCN)C(=O)N[C@@H](CC(N)=O)C(=O)N[C@@H](CCCCN)C(=O)N[C@@H](CCC(N)=O)C(=O)N[C@H](C(=O)N[C@@H](CC(C)C)C(=O)N[C@@H](C)C(=O)N[C@@H](CCC(N)=O)C(=O)N[C@H](C(N)=O)C(C)C)[C@@H](C)CC)[C@@H](C)CC)[C@@H](C)CC)C(C)C)C(C)C
The molecule B3 came in with an EC50 [nM], 0% HSA (cAMP, HTRF) in experiment [1] of 1.39 nM. In experiment [2], the “EC50 [nM] 0% HSA (cAMP, HTRF)” value is greater than 100 nM and the “Emax (%) (100% = Sauvagine at 100 nM)” value is -2.9%.

B4: peptide of SEQ ID NO: 203 (peptide)
peptide: IVLSLD[dV]PIGLK([AEEA-AEEA-γGlu-γGlu-C16 diacid])QILLKQERQKK[Aib]REQAETNKQILAQV-NH2
modifications: N-terminus assumed
SMILES: CC[C@H](C)[C@H](N)C(=O)N[C@H](C(=O)N[C@@H](CC(C)C)C(=O)N[C@@H](CO)C(=O)N[C@@H](CC(C)C)C(=O)N[C@@H](CC(=O)O)C(=O)N[C@@H](C(=O)N1CCC[C@H]1C(=O)N[C@H](C(=O)NCC(=O)N[C@@H](CC(C)C)C(=O)N[C@@H](CCCCNC(=O)COCCOCCNC(=O)COCCOCCNC(=O)CC[C@H](NC(=O)CC[C@H](NC(=O)CCCCCCCCCCCCCCC(=O)O)C(=O)O)C(=O)O)C(=O)N[C@@H](CCC(N)=O)C(=O)N[C@H](C(=O)N[C@@H](CC(C)C)C(=O)N[C@@H](CC(C)C)C(=O)N[C@@H](CCCCN)C(=O)N[C@@H](CCC(N)=O)C(=O)N[C@@H](CCC(=O)O)C(=O)N[C@@H](CCCNC(=N)N)C(=O)N[C@@H](CCC(N)=O)C(=O)N[C@@H](CCCCN)C(=O)N[C@@H](CCCCN)C(=O)NC(C)(C)C(=O)N[C@@H](CCCNC(=N)N)C(=O)N[C@@H](CCC(=O)O)C(=O)N[C@@H](CCC(N)=O)C(=O)N[C@@H](C)C(=O)N[C@@H](CCC(=O)O)C(=O)N[C@H](C(=O)N[C@@H](CC(N)=O)C(=O)N[C@@H](CCCCN)C(=O)N[C@@H](CCC(N)=O)C(=O)N[C@H](C(=O)N[C@@H](CC(C)C)C(=O)N[C@@H](C)C(=O)N[C@@H](CCC(N)=O)C(=O)N[C@H](C(N)=O)C(C)C)[C@@H](C)CC)[C@@H](C)O)[C@@H](C)CC)[C@@H](C)CC)C(C)C)C(C)C
In experiment [1], B4 gave an EC50 [nM], 0% HSA (cAMP, HTRF) of 4.7 nM. Moreover, in experiment [2], the “EC50 [nM] 0% HSA (cAMP, HTRF)” value is greater than 100 nM and the “Emax (%) (100% = Sauvagine at 100 nM)” value is 4.7%.

B5: peptide of SEQ ID NO: 201 (peptide)
peptide: IVLSLD[dV]PIKLK([AEEA-AEEA-γGlu-γGlu-C16 diacid])QILLKQERQKK[Aib]RQKAEKNKQILAQV-NH2
modifications: N-terminus assumed
SMILES: CC[C@H](C)[C@H](N)C(=O)N[C@H](C(=O)N[C@@H](CC(C)C)C(=O)N[C@@H](CO)C(=O)N[C@@H](CC(C)C)C(=O)N[C@@H](CC(=O)O)C(=O)N[C@@H](C(=O)N1CCC[C@H]1C(=O)N[C@H](C(=O)N[C@@H](CCCCN)C(=O)N[C@@H](CC(C)C)C(=O)N[C@@H](CCCCNC(=O)COCCOCCNC(=O)COCCOCCNC(=O)CC[C@H](NC(=O)CC[C@H](NC(=O)CCCCCCCCCCCCCCC(=O)O)C(=O)O)C(=O)O)C(=O)N[C@@H](CCC(N)=O)C(=O)N[C@H](C(=O)N[C@@H](CC(C)C)C(=O)N[C@@H](CC(C)C)C(=O)N[C@@H](CCCCN)C(=O)N[C@@H](CCC(N)=O)C(=O)N[C@@H](CCC(=O)O)C(=O)N[C@@H](CCCNC(=N)N)C(=O)N[C@@H](CCC(N)=O)C(=O)N[C@@H](CCCCN)C(=O)N[C@@H](CCCCN)C(=O)NC(C)(C)C(=O)N[C@@H](CCCNC(=N)N)C(=O)N[C@@H](CCC(N)=O)C(=O)N[C@@H](CCCCN)C(=O)N[C@@H](C)C(=O)N[C@@H](CCC(=O)O)C(=O)N[C@@H](CCCCN)C(=O)N[C@@H](CC(N)=O)C(=O)N[C@@H](CCCCN)C(=O)N[C@@H](CCC(N)=O)C(=O)N[C@H](C(=O)N[C@@H](CC(C)C)C(=O)N[C@@H](C)C(=O)N[C@@H](CCC(N)=O)C(=O)N[C@H](C(N)=O)C(C)C)[C@@H](C)CC)[C@@H](C)CC)[C@@H](C)CC)C(C)C)C(C)C
Consider B5, for which, in experiment [1], the EC50 [nM], 0% HSA (cAMP, HTRF) worked out at 4.66 nM. Also, in experiment [2], the “EC50 [nM] 0% HSA (cAMP, HTRF)” value is greater than 100 nM and the “Emax (%) (100% = Sauvagine at 100 nM)” value was -2.8%.
